Source: US20140242075A1

Columns and labels:
C1q (human) [1] = molecular target: C1q (human) (UniProt P02745); assay: cell-based or functional assay
C1q (human) [2] = molecular target: C1q (human) (UniProt P02745); assay: C1q binding ELISA: antibody coated in a dilution series (0.58-10 µg/mL), 3% pooled human serum as source of C1q, rabbit anti-human C1q and swine anti-rabbit IgG-HRP, ABTS, OD 405 nm
C1q (human) [3] = molecular target: C1q (human) (UniProt P02745); assay: FACS, C1q titrated on Daudi cells opsonized with the mix; Exp. 6
C1q (human) [4] = molecular target: C1q (human) (UniProt P02745); assay: FACS, C1q titrated on mAb-opsonized Raji cells; Exp. 1
C1q (human) [5] = molecular target: C1q (human) (UniProt P02745); assay: FACS, C1q titrated on mAb-opsonized Raji cells; Exp. 3
C1q (human) [6] = molecular target: C1q (human) (UniProt P02745); assay: FACS, C1q titrated on mAb-opsonized Daudi cells; Exp. 1
C1q (human) [7] = molecular target: C1q (human) (UniProt P02745); assay: C1q ELISA, coated antibody series + 3% human serum; mean
C1q (human) [8] = molecular target: C1q (human) (UniProt P02745); assay: FACS, C1q titrated on mAb-opsonized Daudi cells; Exp. 10
C1q (human) [9] = molecular target: C1q (human) (UniProt P02745); assay: FACS, C1q titrated on mAb-opsonized Daudi cells; Exp. 11

C1q (human), sequence (P02745 23-245 limits assumed, chain 1 of 3): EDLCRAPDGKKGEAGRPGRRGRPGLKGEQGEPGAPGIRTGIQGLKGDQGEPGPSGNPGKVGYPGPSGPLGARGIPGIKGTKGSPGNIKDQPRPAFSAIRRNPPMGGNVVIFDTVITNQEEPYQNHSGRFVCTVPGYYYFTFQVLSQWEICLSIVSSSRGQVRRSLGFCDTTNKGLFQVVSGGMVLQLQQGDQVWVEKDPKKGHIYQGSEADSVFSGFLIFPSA
C1q (human), sequence (P02746 28-253 limits assumed, chain 2 of 3, further chain): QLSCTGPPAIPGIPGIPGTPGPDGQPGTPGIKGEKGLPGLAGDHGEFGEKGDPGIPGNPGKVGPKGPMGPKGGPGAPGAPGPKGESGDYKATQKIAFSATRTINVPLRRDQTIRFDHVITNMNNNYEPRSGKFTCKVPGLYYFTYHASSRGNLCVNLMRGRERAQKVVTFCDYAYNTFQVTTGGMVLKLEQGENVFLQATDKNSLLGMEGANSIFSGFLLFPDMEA
C1q (human), sequence (P02747 29-245 limits assumed, chain 3 of 3, further chain): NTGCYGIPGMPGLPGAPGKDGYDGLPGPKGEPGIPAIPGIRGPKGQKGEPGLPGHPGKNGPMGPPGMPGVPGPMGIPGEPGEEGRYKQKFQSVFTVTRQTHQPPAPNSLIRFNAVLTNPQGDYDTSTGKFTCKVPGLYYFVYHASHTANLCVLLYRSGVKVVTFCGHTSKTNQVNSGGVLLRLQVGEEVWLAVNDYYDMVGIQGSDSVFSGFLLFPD
IgG1-7D8-E345R (antibody), sequence (heavy, form in doubt): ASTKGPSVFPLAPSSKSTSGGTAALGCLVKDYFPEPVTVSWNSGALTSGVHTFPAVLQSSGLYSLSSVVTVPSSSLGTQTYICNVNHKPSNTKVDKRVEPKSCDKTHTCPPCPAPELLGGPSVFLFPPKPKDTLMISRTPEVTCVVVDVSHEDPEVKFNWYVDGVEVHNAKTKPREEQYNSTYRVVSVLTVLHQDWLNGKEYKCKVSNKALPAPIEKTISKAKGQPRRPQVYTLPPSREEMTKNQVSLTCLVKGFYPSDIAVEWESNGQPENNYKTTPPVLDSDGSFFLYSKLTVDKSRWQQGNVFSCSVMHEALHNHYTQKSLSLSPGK

Substance	CH50 for C1q efficacy in a CDC assay on Raji cells (C1q (human) [1]) [µg/mL]	other results
IgG1-7D8-Y436D (antibody)	> 30	
IgG1-7D8-E345R (antibody)	0.03	
IgG1-7D8-G385D (antibody)	22.5	
IgG1-7D8-E382R (antibody)	0.77	
IgG1-7D8-Q438D (antibody)	> 30	
IgG1-7D8-K439E/S440K (antibody)	0.09	
IgG1-7D8-S440K (antibody)	> 30	
IgG1-7D8-N434A (antibody)	21.2	
IgG1-7D8-H433D (antibody)	> 30	
IgG1-7D8-H435R (antibody)	0.24	EC50 (read off the curve) (C1q (human) [2]): 2 µg/mL
IgG1-7D8-K322A (antibody)	> 30	EC50 calculated from the CDC assay on Daudi cells (antibody concentration resulting in 50% lysis) (C1q (human) [1]): > 30 µg/mL
IgG1-7D8-H433R (antibody)	0.16	
IgG1-7D8-I253A (antibody)	11.2	
IgG1-7D8-Q311A (antibody)	0.63	
IgG1-7D8-I253D/H433A (antibody)	> 30	
IgG1-7D8-K439E (antibody)	> 30	
IgG1-7D8-I253D (antibody)	> 30	
IgG1-7D8-H310K (antibody)	> 30	
7D8-K439E + 7D8-S440K mix	1.33	Kd (C1q (human) [3]): 3.6 nM
IgG1-7D8-WT (antibody)	0.49	Kd (C1q (human) [4]): 4.8 nM; Kd (C1q (human) [5]): 10.9 nM; Kd (C1q (human) [6]): 7.7 nM; EC50 (C1q (human) [7]): 2.05 µg/mL; Kd (C1q (human) [8]): 11.8 nM; Kd (C1q (human) [9]): 13.3 nM
IgG1-7D8-H435A (antibody)	0.96	
IgG1-7D8-I253Y (antibody)	16.1	
IgG1-7D8-H433A (antibody)	> 30	
